Laboratory results taken from patent US20130005646A1 (Novo Nordisk, published 2013).
Starred links: 1 amine or outer side, 2 acyl side, 3 side chain; linkers in the order of their positions; H or OH if unused. Positions of bridges follow the written chain, without caps; N, C: chain ends. Groups on a side chain read outwards from the residue. No end group written: not given here. *: point of attachment. C20 diacid = O=C(O)CCCCCCCCCCCCCCCCCCC(=O)*; γGlu = O=C(O)[C@H](CCC(=O)[*:2])N[*:1]; AEEA = NCCOCCOCC(=O)O

T1: human calcitonin (a) receptor (human, UniProt P30988 25-474)
T1 sequence (looked up): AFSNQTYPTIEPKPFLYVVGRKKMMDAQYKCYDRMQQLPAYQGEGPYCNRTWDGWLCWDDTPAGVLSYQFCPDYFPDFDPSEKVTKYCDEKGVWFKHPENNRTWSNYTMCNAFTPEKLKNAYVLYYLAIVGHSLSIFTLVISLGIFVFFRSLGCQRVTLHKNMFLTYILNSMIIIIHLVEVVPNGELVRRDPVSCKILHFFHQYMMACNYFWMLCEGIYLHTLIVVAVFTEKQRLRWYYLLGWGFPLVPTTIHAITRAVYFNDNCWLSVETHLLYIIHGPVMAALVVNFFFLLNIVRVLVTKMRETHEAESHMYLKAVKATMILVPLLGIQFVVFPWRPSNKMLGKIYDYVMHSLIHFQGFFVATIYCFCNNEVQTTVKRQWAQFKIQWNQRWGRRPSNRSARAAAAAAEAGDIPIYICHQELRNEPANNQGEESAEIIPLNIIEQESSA

T2: human amylin 3(a) receptor (human calcitonin receptor + RAMP-3) (human, UniProt P30988 25-474; O60896 24-148)
T2 sequence (looked up) 1: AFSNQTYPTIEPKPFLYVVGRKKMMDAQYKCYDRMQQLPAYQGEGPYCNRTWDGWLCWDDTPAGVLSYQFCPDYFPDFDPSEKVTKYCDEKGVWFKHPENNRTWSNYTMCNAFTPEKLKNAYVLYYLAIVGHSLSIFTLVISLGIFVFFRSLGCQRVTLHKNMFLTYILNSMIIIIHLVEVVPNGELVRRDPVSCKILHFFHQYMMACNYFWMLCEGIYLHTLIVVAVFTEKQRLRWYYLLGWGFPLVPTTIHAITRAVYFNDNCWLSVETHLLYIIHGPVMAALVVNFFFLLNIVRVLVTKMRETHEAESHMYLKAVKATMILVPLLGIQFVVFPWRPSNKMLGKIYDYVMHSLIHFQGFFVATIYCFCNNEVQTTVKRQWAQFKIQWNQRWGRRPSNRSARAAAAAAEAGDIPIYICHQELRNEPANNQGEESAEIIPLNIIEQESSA
T2 sequence (looked up) 2: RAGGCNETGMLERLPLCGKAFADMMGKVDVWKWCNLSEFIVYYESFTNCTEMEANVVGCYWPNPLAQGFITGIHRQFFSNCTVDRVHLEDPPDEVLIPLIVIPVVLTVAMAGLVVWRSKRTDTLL


What was measured:
[1] = target: T1, human calcitonin (a) receptor; test: cell-based or functional assay
[2] = target: T2, human amylin 3(a) receptor (human …); test: cell-based or functional assay

| CTa receptor human EC50 [1] [nM] | Amylin receptor human EC50 [2] [nM] | Binder |
| --- | --- | --- |
| 0.0315 | 0.0555 | {C20 diacid-γGlu}-KCNTATCATQRLAEFLHHSSQNFGPILPPTNVGSNTP-NH2 (disulfide 2-7; SMILES CC[C@H](C)[C@H](NC(=O)[C@@H]1CCCN1C(=O)CNC(=O)[C@H](Cc1ccccc1)NC(=O)[C@H](CC(N)=O)NC(=O)[C@H](CCC(N)=O)NC(=O)[C@H](CO)NC(=O)[C@H](CO)NC(=O)[C@H](Cc1c[nH]cn1)NC(=O)[C@H](Cc1c[nH]cn1)NC(=O)[C@H](CC(C)C)NC(=O)[C@H](Cc1ccccc1)NC(=O)[C@H](CCC(=O)O)NC(=O)[C@H](C)NC(=O)[C@H](CC(C)C)NC(=O)[C@H](CCCNC(=N)N)NC(=O)[C@H](CCC(N)=O)NC(=O)[C@@H](NC(=O)[C@H](C)NC(=O)[C@@H]1CSSC[C@H](NC(=O)[C@H](CCCCN)NC(=O)CC[C@H](NC(=O)CCCCCCCCCCCCCCCCCCC(=O)O)C(=O)O)C(=O)N[C@@H](CC(N)=O)C(=O)N[C@@H]([C@@H](C)O)C(=O)N[C@@H](C)C(=O)N[C@@H]([C@@H](C)O)C(=O)N1)[C@@H](C)O)C(=O)N[C@@H](CC(C)C)C(=O)N1CCC[C@H]1C(=O)N1CCC[C@H]1C(=O)N[C@H](C(=O)N[C@@H](CC(N)=O)C(=O)N[C@H](C(=O)NCC(=O)N[C@@H](CO)C(=O)N[C@@H](CC(N)=O)C(=O)N[C@H](C(=O)N1CCC[C@H]1C(N)=O)[C@@H](C)O)C(C)C)[C@@H](C)O) [N-alpha-[(S)-4-Carboxy-4-(19-carboxynonadecanoylamino)butyryl]-[Glu14,His17,Gln21,Pro37]-pramlintide] |
| 0.097 | 0.103 | {C20 diacid-γGlu}-KCNTATCATQRLAEFLHHSSNNFGPILPPTNVGSQTP-NH2 (disulfide 2-7; SMILES CC[C@H](C)[C@H](NC(=O)[C@@H]1CCCN1C(=O)CNC(=O)[C@H](Cc1ccccc1)NC(=O)[C@H](CC(N)=O)NC(=O)[C@H](CC(N)=O)NC(=O)[C@H](CO)NC(=O)[C@H](CO)NC(=O)[C@H](Cc1c[nH]cn1)NC(=O)[C@H](Cc1c[nH]cn1)NC(=O)[C@H](CC(C)C)NC(=O)[C@H](Cc1ccccc1)NC(=O)[C@H](CCC(=O)O)NC(=O)[C@H](C)NC(=O)[C@H](CC(C)C)NC(=O)[C@H](CCCNC(=N)N)NC(=O)[C@H](CCC(N)=O)NC(=O)[C@@H](NC(=O)[C@H](C)NC(=O)[C@@H]1CSSC[C@H](NC(=O)[C@H](CCCCN)NC(=O)CC[C@H](NC(=O)CCCCCCCCCCCCCCCCCCC(=O)O)C(=O)O)C(=O)N[C@@H](CC(N)=O)C(=O)N[C@@H]([C@@H](C)O)C(=O)N[C@@H](C)C(=O)N[C@@H]([C@@H](C)O)C(=O)N1)[C@@H](C)O)C(=O)N[C@@H](CC(C)C)C(=O)N1CCC[C@H]1C(=O)N1CCC[C@H]1C(=O)N[C@H](C(=O)N[C@@H](CC(N)=O)C(=O)N[C@H](C(=O)NCC(=O)N[C@@H](CO)C(=O)N[C@@H](CCC(N)=O)C(=O)N[C@H](C(=O)N1CCC[C@H]1C(N)=O)[C@@H](C)O)C(C)C)[C@@H](C)O) [N-alpha-[(S)-4-Carboxy-4-(19-carboxynonadecanoylamino)butyryl]-[Glu14,His17,Gln35,Pro37]-pramlintide] |
| 0.072 | 0.12 | {C20 diacid-γGlu}-GCNTATCATQRLAEFLHHSSQNFGPILPPTNVGSQTP-NH2 (disulfide 2-7; SMILES CC[C@H](C)[C@H](NC(=O)[C@@H]1CCCN1C(=O)CNC(=O)[C@H](Cc1ccccc1)NC(=O)[C@H](CC(N)=O)NC(=O)[C@H](CCC(N)=O)NC(=O)[C@H](CO)NC(=O)[C@H](CO)NC(=O)[C@H](Cc1c[nH]cn1)NC(=O)[C@H](Cc1c[nH]cn1)NC(=O)[C@H](CC(C)C)NC(=O)[C@H](Cc1ccccc1)NC(=O)[C@H](CCC(=O)O)NC(=O)[C@H](C)NC(=O)[C@H](CC(C)C)NC(=O)[C@H](CCCNC(=N)N)NC(=O)[C@H](CCC(N)=O)NC(=O)[C@@H](NC(=O)[C@H](C)NC(=O)[C@@H]1CSSC[C@H](NC(=O)CNC(=O)CC[C@H](NC(=O)CCCCCCCCCCCCCCCCCCC(=O)O)C(=O)O)C(=O)N[C@@H](CC(N)=O)C(=O)N[C@@H]([C@@H](C)O)C(=O)N[C@@H](C)C(=O)N[C@@H]([C@@H](C)O)C(=O)N1)[C@@H](C)O)C(=O)N[C@@H](CC(C)C)C(=O)N1CCC[C@H]1C(=O)N1CCC[C@H]1C(=O)N[C@H](C(=O)N[C@@H](CC(N)=O)C(=O)N[C@H](C(=O)NCC(=O)N[C@@H](CO)C(=O)N[C@@H](CCC(N)=O)C(=O)N[C@H](C(=O)N1CCC[C@H]1C(N)=O)[C@@H](C)O)C(C)C)[C@@H](C)O) |
| 0.045 | 0.091 | {C20 diacid-γGlu}-KCNTATCATQRLAEFLHHSSQNFGPILPPTNVGSQTP-NH2 (disulfide 2-7; SMILES CC[C@H](C)[C@H](NC(=O)[C@@H]1CCCN1C(=O)CNC(=O)[C@H](Cc1ccccc1)NC(=O)[C@H](CC(N)=O)NC(=O)[C@H](CCC(N)=O)NC(=O)[C@H](CO)NC(=O)[C@H](CO)NC(=O)[C@H](Cc1c[nH]cn1)NC(=O)[C@H](Cc1c[nH]cn1)NC(=O)[C@H](CC(C)C)NC(=O)[C@H](Cc1ccccc1)NC(=O)[C@H](CCC(=O)O)NC(=O)[C@H](C)NC(=O)[C@H](CC(C)C)NC(=O)[C@H](CCCNC(=N)N)NC(=O)[C@H](CCC(N)=O)NC(=O)[C@@H](NC(=O)[C@H](C)NC(=O)[C@@H]1CSSC[C@H](NC(=O)[C@H](CCCCN)NC(=O)CC[C@H](NC(=O)CCCCCCCCCCCCCCCCCCC(=O)O)C(=O)O)C(=O)N[C@@H](CC(N)=O)C(=O)N[C@@H]([C@@H](C)O)C(=O)N[C@@H](C)C(=O)N[C@@H]([C@@H](C)O)C(=O)N1)[C@@H](C)O)C(=O)N[C@@H](CC(C)C)C(=O)N1CCC[C@H]1C(=O)N1CCC[C@H]1C(=O)N[C@H](C(=O)N[C@@H](CC(N)=O)C(=O)N[C@H](C(=O)NCC(=O)N[C@@H](CO)C(=O)N[C@@H](CCC(N)=O)C(=O)N[C@H](C(=O)N1CCC[C@H]1C(N)=O)[C@@H](C)O)C(C)C)[C@@H](C)O) |
| 0.496 | 1.51 | {C20 diacid-γGlu}-ECNTATCATQRLAEFLVHSSQNFGPILPPTNVGSQTP-NH2 (disulfide 2-7; SMILES CC[C@H](C)[C@H](NC(=O)[C@@H]1CCCN1C(=O)CNC(=O)[C@H](Cc1ccccc1)NC(=O)[C@H](CC(N)=O)NC(=O)[C@H](CCC(N)=O)NC(=O)[C@H](CO)NC(=O)[C@H](CO)NC(=O)[C@H](Cc1c[nH]cn1)NC(=O)[C@@H](NC(=O)[C@H](CC(C)C)NC(=O)[C@H](Cc1ccccc1)NC(=O)[C@H](CCC(=O)O)NC(=O)[C@H](C)NC(=O)[C@H](CC(C)C)NC(=O)[C@H](CCCNC(=N)N)NC(=O)[C@H](CCC(N)=O)NC(=O)[C@@H](NC(=O)[C@H](C)NC(=O)[C@@H]1CSSC[C@H](NC(=O)[C@H](CCC(=O)O)NC(=O)CC[C@H](NC(=O)CCCCCCCCCCCCCCCCCCC(=O)O)C(=O)O)C(=O)N[C@@H](CC(N)=O)C(=O)N[C@@H]([C@@H](C)O)C(=O)N[C@@H](C)C(=O)N[C@@H]([C@@H](C)O)C(=O)N1)[C@@H](C)O)C(C)C)C(=O)N[C@@H](CC(C)C)C(=O)N1CCC[C@H]1C(=O)N1CCC[C@H]1C(=O)N[C@H](C(=O)N[C@@H](CC(N)=O)C(=O)N[C@H](C(=O)NCC(=O)N[C@@H](CO)C(=O)N[C@@H](CCC(N)=O)C(=O)N[C@H](C(=O)N1CCC[C@H]1C(N)=O)[C@@H](C)O)C(C)C)[C@@H](C)O) |

Continued, binder first:

| Binder | CTa receptor human EC50 [1] [nM] | Amylin receptor human EC50 [2] [nM] |
| --- | --- | --- |
| KCNTATCATQRLANFLHHSSHNFGK([AEEA-AEEA-γGlu-19‑carboxyheptadecanoyl])ILSSTNVGSHTY-NH2 (disulfide 2-7) | 0.194 | 0.39 |
| KCNTATCATQRLAEFLVHSSK([AEEA-AEEA-γGlu-19‑carboxyheptadecanoyl])NFGPILSSTNVGSHTY-NH2 (disulfide 2-7) | 0.336 | 0.858 |
| KCNTATCATQRLAEFLHHSSSNFGK([AEEA-AEEA-γGlu-19‑carboxyheptadecanoyl])ILSSTNVGSHTY-NH2 (disulfide 2-7) | 0.142 | 0.416 |
| KCNTATCATQRLAEFLVHSSK([AEEA-AEEA-γGlu-19‑carboxyheptadecanoyl])NFGPILPPTNVGSHTY-NH2 (disulfide 2-7) | 0.601 | 0.999 |
